The results in this text go back to the supplement of paper PMC10899765.

Common to all, as to settings: 20 nM; 72 h
In data set [1] the test system is MCF10A. The data set can be described thus: percent viability (nuclei count relative to siNT); higher = more viable cells. How it is done: (§1)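 After 72 h, cells were fixed and stained with Hoechst and anti-fibrillarin, and nucleoli per nucleus were counted with CellProfiler. Values are plate-adjusted percent effect for the one-nucleolus and 5+ nucleoli phenotypes, normalised to siNT (0%) and to the positive controls siNOL11 or siKIF11 (100%), as the mean of biological triplicates. Percent viability is the nuclei count relative to siNT.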

Data set [2] relates to MCF10A. The data set can be described thus: 5+ nucleoli phenotype percent effect (relative to siNT 0% and siKIF11 100%); higher = more cells with five or more nucleoli. The procedure:
as §1

Data set [3] has as its system MCF10A. The data set can be described thus: one-nucleolus phenotype percent effect (relative to siNT 0% and siNOL11 100%); higher = more cells with one nucleolus (ribosome biogenesis inhibition). How it is done: as §1

Take UCAGCAAACAUUUAUUGUGUGC [hsa-miR-545-3p]: the percent viability in the data set on MCF10A [1] stood at 124%. Besides, the “5+ nucleoli phenotype percent effect” value in the data set on MCF10A [2] amounted to 27.8%. Further, in the data set with MCF10A [3], the “one-nucleolus phenotype percent effect” value was -21.8%.

As to AGGAGGCAGCGCUCUCAGGAC [hsa-miR-650], the percent viability with MCF10A [1] was 33.8%. In addition, in the data set on MCF10A [2], the “5+ nucleoli phenotype percent effect” value was -3.4%. For the same sequence, the “one-nucleolus phenotype percent effect” value in the data set on MCF10A [3] turned out to be 23.2%.

For the sequence “AGGUGGGUAUGGAGGAGCCCU [hsa-miR-6769a-5p]”, in the data set on MCF10A [1], the percent viability was 14.3%. Moreover, the “5+ nucleoli phenotype percent effect” value with MCF10A [2] was -16.7%. In addition, in the data set with MCF10A [3], the “one-nucleolus phenotype percent effect” value was determined as 39.6%.

Turning to “ACAGUAGUCUGCACAUUGGUUA [hsa-miR-199a-3p]”, the percent viability in the data set on MCF10A [1] is 67.2%. Further, the “5+ nucleoli phenotype percent effect” value in the data set with MCF10A [2] was 18.7%. Moreover, the “one-nucleolus phenotype percent effect” value in the data set on MCF10A [3] was -13.9%.

Take CCCGGCCGGAACGCCGCACU [hsa-miR-6850-3p]: in the data set with MCF10A [1], the percent viability was determined as 65.7%. Further, the “5+ nucleoli phenotype percent effect” value with MCF10A [2] was determined as 23.1%. Moreover, in the data set with MCF10A [3], the “one-nucleolus phenotype percent effect” value is -20.3%.

For the sequence CAAAUUCGUAUCUAGGGGAAUA [hsa-miR-10a-3p], the percent viability with MCF10A [1] was found to be 84.8%. Besides, the “5+ nucleoli phenotype percent effect” value with MCF10A [2] stood at 38.1%. Also, in the data set on MCF10A [3], the “one-nucleolus phenotype percent effect” value is -15.8%.

Turning to “UAAAGUGGCAGAGUAUAGACAC [hsa-miR-4796-3p]”, in the data set with MCF10A [1], the percent viability worked out at 75.7%. Moreover, the “5+ nucleoli phenotype percent effect” value in the data set on MCF10A [2] was -8.21%. Further, the “one-nucleolus phenotype percent effect” value in the data set with MCF10A [3] is -1.57%.

For AUCCAGUUCUCUGAGGGGGCU [hsa-miR-5195-3p], the percent viability in the data set on MCF10A [1] came out at 46.4%. For the same sequence, the “5+ nucleoli phenotype percent effect” value with MCF10A [2] came out at 2.52%. For the same sequence, the “one-nucleolus phenotype percent effect” value in the data set with MCF10A [3] amounted to 13.3%.

“AGGACUGAUCCUCUCGGGCAGG [hsa-miR-4740-5p]”: the percent viability with MCF10A [1] amounted to 24.1%. Further, the “5+ nucleoli phenotype percent effect” value in the data set with MCF10A [2] was -14.8%. Further, the “one-nucleolus phenotype percent effect” value in the data set with MCF10A [3] came to 47.7%.

As to UGGGGCUAGUGAUGCAGGACG [hsa-miR-4489], in the data set on MCF10A [1], the percent viability is 18.6%. Moreover, the “5+ nucleoli phenotype percent effect” value with MCF10A [2] was -9.01%. The “one-nucleolus phenotype percent effect” value in the data set on MCF10A [3] stood at 25.8%.

UAGUACUGUGCAUAUCAUCUAU [hsa-miR-1278]: in the data set with MCF10A [1], the percent viability came to 73.4%. In the data set on MCF10A [2], the “5+ nucleoli phenotype percent effect” value is -12.8%. In the data set on MCF10A [3], the “one-nucleolus phenotype percent effect” value was -1.62%.

Turning to “UUGGCCACCACACCUACCCCUU [hsa-miR-4701-5p]”, the percent viability in the data set on MCF10A [1] came to 35.9%. Further, the “5+ nucleoli phenotype percent effect” value in the data set with MCF10A [2] worked out at 19.1%. In addition, the “one-nucleolus phenotype percent effect” value in the data set with MCF10A [3] was 1.71%.

Take CACAUGGCCGAAACAGAGAAGU [hsa-miR-942-3p]: the percent viability in the data set with MCF10A [1] amounted to 32.7%. Moreover, in the data set with MCF10A [2], the “5+ nucleoli phenotype percent effect” value is -8.03%. For the same sequence, in the data set on MCF10A [3], the “one-nucleolus phenotype percent effect” value was -19.9%.

Turning to “CAGUUCAGAAGUGUUCCUGAGU [hsa-miR-5000-5p]”, in the data set with MCF10A [1], the percent viability was 32.3%. For the same sequence, the “5+ nucleoli phenotype percent effect” value in the data set with MCF10A [2] is -19.1%. Further, in the data set with MCF10A [3], the “one-nucleolus phenotype percent effect” value was -9.77%.

“AGGCAGGGGCUGGUGCUGGGCGGG [hsa-miR-4763-3p]”: the percent viability with MCF10A [1] came out at 52.2%. For the same sequence, in the data set with MCF10A [2], the “5+ nucleoli phenotype percent effect” value was 5.7%. Also, the “one-nucleolus phenotype percent effect” value in the data set on MCF10A [3] came out at 9.32%.

Consider “AAUUUACUCUGCAAUCUUCUCC [hsa-miR-4699-3p]”, for which the percent viability in the data set with MCF10A [1] came out at 87.9%. The “5+ nucleoli phenotype percent effect” value with MCF10A [2] is -0.943%. Further, the “one-nucleolus phenotype percent effect” value in the data set with MCF10A [3] is -12.5%.

Turning to UAGCAGCACAUAAUGGUUUGUG [hsa-miR-15a-5p], the percent viability in the data set with MCF10A [1] was 17.3%. For the same sequence, the “5+ nucleoli phenotype percent effect” value in the data set on MCF10A [2] was -43.7%. The “one-nucleolus phenotype percent effect” value with MCF10A [3] amounted to 40.1%.

On to “AGCAAAAUAAGCAAAUGGAAAA [hsa-miR-1468-3p]”, for which the percent viability in the data set on MCF10A [1] is 128%. Further, in the data set on MCF10A [2], the “5+ nucleoli phenotype percent effect” value turned out to be 29.6%. For the same sequence, the “one-nucleolus phenotype percent effect” value in the data set on MCF10A [3] was -19.1%.

For the sequence “AAAGUGCAUCUUUUUAGAGGAU [hsa-miR-519c-3p]”, the percent viability with MCF10A [1] is 119%. Moreover, the “5+ nucleoli phenotype percent effect” value in the data set on MCF10A [2] worked out at 110%. For the same sequence, in the data set with MCF10A [3], the “one-nucleolus phenotype percent effect” value is -25.5%.

Turning to UCCAGCAUCAGUGAUUUUGUUG [hsa-miR-338-3p], the percent viability in the data set on MCF10A [1] came out at 98.2%. Further, the “5+ nucleoli phenotype percent effect” value with MCF10A [2] amounted to 26.3%. For the same sequence, the “one-nucleolus phenotype percent effect” value in the data set on MCF10A [3] was -13.2%.

CUUGGGAGCCCUGUUAGACUC [hsa-miR-887-5p]: the percent viability in the data set on MCF10A [1] turned out to be 176%. Further, in the data set with MCF10A [2], the “5+ nucleoli phenotype percent effect” value stood at 76%. Besides, in the data set with MCF10A [3], the “one-nucleolus phenotype percent effect” value is -32.3%.

UUCACUGGAGUUUGUUUCAAUA [hsa-miR-653-3p]: the percent viability with MCF10A [1] was 57.9%. In addition, the “5+ nucleoli phenotype percent effect” value in the data set with MCF10A [2] is -0.303%. Also, in the data set on MCF10A [3], the “one-nucleolus phenotype percent effect” value was -7.51%.

For the sequence CAGAACAGGAGCAUAGAAAGGC [hsa-miR-4773], the percent viability with MCF10A [1] was found to be 43.7%. Also, in the data set on MCF10A [2], the “5+ nucleoli phenotype percent effect” value came to 22.9%. Besides, in the data set with MCF10A [3], the “one-nucleolus phenotype percent effect” value was -20.2%.

For AGGCAUGGGAGGUCAGGUGA [hsa-miR-3622b-5p], the percent viability in the data set with MCF10A [1] was 16.5%. In addition, in the data set on MCF10A [2], the “5+ nucleoli phenotype percent effect” value is -30.6%. For the same sequence, the “one-nucleolus phenotype percent effect” value with MCF10A [3] turned out to be 32.5%.

For “UAGGCCACAGCCACCCAUGUGU [hsa-miR-4717-5p]”, the percent viability in the data set on MCF10A [1] amounted to 23.3%. The “5+ nucleoli phenotype percent effect” value with MCF10A [2] is -6.97%. Besides, the “one-nucleolus phenotype percent effect” value in the data set on MCF10A [3] was -8.66%.

In the case of “UGGCCGGAUGGGACAGGAGGCAU [hsa-miR-4743-5p]”, the percent viability in the data set with MCF10A [1] is 25.6%. In addition, the “5+ nucleoli phenotype percent effect” value in the data set with MCF10A [2] was -11.6%. For the same sequence, in the data set with MCF10A [3], the “one-nucleolus phenotype percent effect” value came out at 20.6%.

CGGGGGCGGGGCCGAAGCGCG [hsa-miR-1237-5p]: the percent viability in the data set with MCF10A [1] came out at 85.4%. The “5+ nucleoli phenotype percent effect” value in the data set with MCF10A [2] is 45.4%. Further, the “one-nucleolus phenotype percent effect” value with MCF10A [3] was -22%.

With GUGAAUUACCGAAGGGCCAUAA [hsa-miR-183-3p], the percent viability in the data set on MCF10A [1] amounted to 56.8%. The “5+ nucleoli phenotype percent effect” value in the data set on MCF10A [2] is -32%. The “one-nucleolus phenotype percent effect” value in the data set on MCF10A [3] was determined as 9.97%.

With CUUUUUGCGGUCUGGGCUUGC [hsa-miR-129-5p], the percent viability in the data set with MCF10A [1] was determined as 39.8%. Moreover, the “5+ nucleoli phenotype percent effect” value in the data set with MCF10A [2] is -6.61%. For the same sequence, the “one-nucleolus phenotype percent effect” value with MCF10A [3] was 8.91%.

Take “UGGUCUGUUCAUUCUCUCUUUUUGGCC [hsa-miR-7107-3p]”: the percent viability in the data set on MCF10A [1] is 15%. Moreover, in the data set with MCF10A [2], the “5+ nucleoli phenotype percent effect” value came out at 0.728%. For the same sequence, in the data set on MCF10A [3], the “one-nucleolus phenotype percent effect” value turned out to be 13.2%.

Regarding ACCUGGCAGCAGGGAGCGUCGU [hsa-miR-8073], in the data set with MCF10A [1], the percent viability stood at 33.8%. For the same sequence, the “5+ nucleoli phenotype percent effect” value in the data set with MCF10A [2] was -35.6%. Also, the “one-nucleolus phenotype percent effect” value with MCF10A [3] came to 28.9%.

In the case of UACUUUUCUAGGUUGUUGGGG [hsa-miR-5003-3p], the percent viability with MCF10A [1] stood at 24.9%. For the same sequence, the “5+ nucleoli phenotype percent effect” value in the data set with MCF10A [2] is -39.5%. In the data set with MCF10A [3], the “one-nucleolus phenotype percent effect” value was 55.6%.

With “CUCUAGCCACAGAUGCAGUGAU [hsa-miR-1287-3p]”, the percent viability in the data set on MCF10A [1] was 17%. For the same sequence, the “5+ nucleoli phenotype percent effect” value in the data set with MCF10A [2] is -37.2%. In addition, the “one-nucleolus phenotype percent effect” value in the data set on MCF10A [3] is 31.4%.

Regarding AAGCCUGCCCGGCUCCUCGGG [hsa-miR-596], in the data set with MCF10A [1], the percent viability came out at 74.8%. The “5+ nucleoli phenotype percent effect” value in the data set with MCF10A [2] was -11.4%. Besides, the “one-nucleolus phenotype percent effect” value in the data set with MCF10A [3] is -4%.

As for UGCCAACCGUCAGAGCCCAGA [hsa-miR-5189-3p], in the data set with MCF10A [1], the percent viability amounted to 59.9%. In addition, in the data set on MCF10A [2], the “5+ nucleoli phenotype percent effect” value is -12%. Also, the “one-nucleolus phenotype percent effect” value with MCF10A [3] is -1.7%.

For CAGGGAACCAGUUGGGGCUU [hsa-miR-6822-5p], the percent viability in the data set on MCF10A [1] is 20.6%. For the same sequence, the “5+ nucleoli phenotype percent effect” value in the data set on MCF10A [2] is -8.39%. In addition, the “one-nucleolus phenotype percent effect” value with MCF10A [3] is 20.9%.
